Measurements as given in US20110280881A1, “NOVEL ANTI-HSP90 MONOCLONAL ANTIBODY” (RIKEN, priority 2010, published 2011).

B1: IL-23: cytokine (protein, UniProt Q9NPF7 20-189; P29460 23-328, looked up)
Interleukin-23 subunit alpha: RAVPGGSSPAWTQCQQLSQKLCTLAWSAHPLVGHMDLREEGDEETTNDVPHIQCGDGCDPQGLRDNSQFCLQRIHQGLIFYEKLLGSDIFTGEPSLLPDSPVGQLHASLLGLSQLLQPEGHHWETQQIPSLSPSQPWQRLLLRFKILRSLQAFVAVAARVFAHGAATLSP
Interleukin-12 subunit beta: IWELKKDVYVVELDWYPDAPGEMVVLTCDTPEEDGITWTLDQSSEVLGSGKTLTIQVKEFGDAGQYTCHKGGEVLSHSLLLLHKKEDGIWSTDILKDQKEPKNKTFLRCEAKNYSGRFTCWWLTTISTDLTFSVKSSRGSSDPQGVTCGAATLSAERVRGDNKEYEYSVECQEDSACPAAEESLPIEVMVDAVHKLKYENYTSSFFIRDIIKPDPPKNLQLKPLKNSRQVEVSWEYPDTWSTPHSYFSLTFCVQVQGKSKREKKDRVFTDKTSATVICRKNASISVRAQDRYYSSSWSEWASVPCS
B2: IL-10: cytokine (protein, UniProt P22301 19-178, looked up)
Interleukin-10: SPGQGTQSENSCTHFPGNLPNMLRDLRDAFSRVKTFFQMKDQLDNLLLKESLLEDFKGYLGCQALSEMIQFYLEEVMPQAENQDPDIKAHVNSLGENLKTLRLRLRRCHRFLPCENKSKAVEQVKNAFNKLQEKGIYKAMSEFDIFINYIEAYMTMKIRN
B3: IL-4: cytokine (protein, UniProt P05112 25-153, looked up)
Interleukin-4: HKCDITLQEIIKTLNSLTEQKTLCTELTVTDIFAASKNTTEKETFCRAATVLRQFYSHHEKDTRCLGATAQQFHRHKQLIRFLKRLDRNLWGLAGLNSCPVKEANQSTLENFLERLKTIMREKYSKCSS

Test system: DC2.4 cells and mouse GM-CSF-dependent BMDC
Assay: Influence of cytokines on expression of cell surface HSP90 (FACS with 6H8)
Assay type: cell-based
Conditions: BMDC, cytokines 100 ng/ml or 10 ng/ml
Procedure: In view of the possibility that cytokines are variation factors for the expression of cell surface HSP90, the influences of various cytokines on the expression of cell surface HSP90 were examined as described below.
The solid bars indicate the MFI for BMDC incubated in the presence of high concentrations of IFNs (as in FIG. 5B) or other cytokines (100 ng/ml); the grey bars indicate the MFI for BMDC incubated in the presence of low concentrations of IFNs (as in FIG. 5B) or other cytokines (10 ng/ml). The open bars indicate the MFI for BMDC incubated in the absence of the cytokines as negative controls.

Molecule	MFI of cell surface HSP90 after cytokine treatment versus negative control
B1	no significant difference from the negative control
B2	no significant difference from the negative control
B3	no significant difference from the negative control
